In article PMC10433458 (Proceedings of the National Academy of Sciences of the …, 2023):
Like-named read-outs stand apart in the source and are kept apart here.

B1: phosphoribulokinase of C. reinhardtii (enzyme, UniProt P19824 32-375, looked up)
chain: DKDKTVVIGLAADSGCGKSTFMRRMTSIFGGVPKPPAGGNPDSNTLISDMTTVICLDDYHCLDRNGRKVKGVTALAPEAQNFDLMYNQVKALKEGKSVDKPIYNHVSGLIDAPEKIESPPILVIEGLHPFYDKRVAELLDFKIYLDISDDIKFAWKIQRDMAERGHSLESIKSSIAARKPDFDAYIDPQKKDADMIIQVLPTQLVPDDKGQYLRVRLIMKEGSKMFDPVYLFDEGSTISWIPCGRKLTCSFPGIKMFYGPDTWYGQEVSVLEMDGQFDKLEELIYVESHLSNTSAKFYGEITQQMLKNSGFPGSNNGTGLFQTIVGLKVREVYERIVKKDVVPV
B2: phosphoribulokinase of A. thaliana (enzyme, A. thaliana (endogenous in leaves), UniProt P25697 47-395, looked up)
chain: AQETIVIGLAADSGCGKSTFMRRLTSVFGGAAKPPKGGNPDSNTLISDTTTVICLDDYHSLDRYGRKEQKVTALDPRANDFDLMYEQVKALKNGIAVEKPIYNHVTGLLDPPELIQPPKILVIEGLHPMFDERVRDLLDFSIYLDISNEVKFAWKIQRDMAERGHSLESIKASIEARKPDFDAFIDPQKQYADAVIEVLPTTLIPDDNEGKVLRVRLIMKEGVKYFSPVYLFDEGSTISWIPCGRKLTCSYPGIKFNYEPDSYFDHEVSVLEMDGQFDRLDELIYVESHLSNLSTKFYGEVTQQMLKHADFPGSNNGTGLFQTIVGLKIRDLYEQLIANKATARAEAKA

What was measured:
[1] = molecular target: the molecule itself; assay: SEC
[2] = molecular target: the molecule itself; assay: SEC; remark: listed apart in the source

| Protein | stoichiometry N [1] | stoichiometry N [2] |
| --- | --- | --- |
| B1 | 2 |  |
| B2 |  | 2 |
